Measured values taken from patent US20040110684A1.

Columns and labels:
[1] = biological target: wild-type eNOS (construct expressed in COS cells) (UniProt P29474); test: cell-based or functional assay
[2] = biological target: endothelial nitric oxide synthase (eNOS), endogenous, human umbilical vein endothelial cells (HUVECs) (human) (UniProt P29474); test: eNOS IP, phospho-Ser473-Akt immunoblot, HUVEC lysates
[3] = biological target: S1177A eNOS mutant (construct expressed in COS cells) (UniProt P29474); test: cell-based or functional assay
S1177A eNOS mutant (construct expressed in COS cells), sequence (P29474 2-1203 S1177A limits assumed): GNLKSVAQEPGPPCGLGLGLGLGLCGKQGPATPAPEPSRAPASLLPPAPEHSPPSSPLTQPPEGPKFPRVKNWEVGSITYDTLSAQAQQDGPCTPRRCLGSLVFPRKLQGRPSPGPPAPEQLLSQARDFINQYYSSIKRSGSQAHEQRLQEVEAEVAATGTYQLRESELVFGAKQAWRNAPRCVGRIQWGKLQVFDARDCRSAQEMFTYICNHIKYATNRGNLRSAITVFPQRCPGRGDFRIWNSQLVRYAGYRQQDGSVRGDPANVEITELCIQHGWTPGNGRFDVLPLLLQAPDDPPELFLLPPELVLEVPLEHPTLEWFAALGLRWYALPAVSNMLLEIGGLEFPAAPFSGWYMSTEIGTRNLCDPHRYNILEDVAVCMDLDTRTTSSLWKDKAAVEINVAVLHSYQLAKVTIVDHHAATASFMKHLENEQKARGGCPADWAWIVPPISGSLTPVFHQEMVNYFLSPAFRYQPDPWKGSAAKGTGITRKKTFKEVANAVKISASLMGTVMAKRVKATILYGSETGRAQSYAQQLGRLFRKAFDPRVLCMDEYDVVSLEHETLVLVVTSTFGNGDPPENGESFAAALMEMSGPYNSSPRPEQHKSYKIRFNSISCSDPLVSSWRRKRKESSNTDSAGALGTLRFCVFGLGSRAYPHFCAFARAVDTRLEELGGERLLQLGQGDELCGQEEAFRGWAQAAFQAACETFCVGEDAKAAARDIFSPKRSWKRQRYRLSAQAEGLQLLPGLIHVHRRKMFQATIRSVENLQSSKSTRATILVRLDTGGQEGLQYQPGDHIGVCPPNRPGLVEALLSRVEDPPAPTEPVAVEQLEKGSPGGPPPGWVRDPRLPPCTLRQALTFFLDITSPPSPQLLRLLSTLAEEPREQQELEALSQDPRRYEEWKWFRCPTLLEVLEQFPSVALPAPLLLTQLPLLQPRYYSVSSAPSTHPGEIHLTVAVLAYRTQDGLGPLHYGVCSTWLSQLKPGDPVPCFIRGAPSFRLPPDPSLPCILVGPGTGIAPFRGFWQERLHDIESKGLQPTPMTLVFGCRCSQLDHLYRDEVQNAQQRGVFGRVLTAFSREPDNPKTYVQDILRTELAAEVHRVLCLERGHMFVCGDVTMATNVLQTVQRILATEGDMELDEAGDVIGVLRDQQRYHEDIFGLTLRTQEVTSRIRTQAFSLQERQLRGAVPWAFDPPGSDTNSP

wild-type eNOS (construct expressed in COS cells), sequence (P29474 2-1203 limits assumed): as the sequence (P29474 2-1203 S1177A limits assumed) above, with A1176S counted along it
endothelial nitric oxide synthase (eNOS), endogenous, human umbilical vein endothelial cells (HUVECs) (human), sequence (P29474 2-1203 limits assumed): as the sequence (P29474 2-1203 S1177A limits assumed) above, with A1176S counted along it

increase over basal level of nitrite production, COS cells co-transfected with WT-eNOS, active Akt and also recombinant hsp90 [1]	fold increase of phospho-Akt enrichment in the eNOS IP, statin plus recombinant hsp90 vs statin alone [2]	Substance	increase in nitrite production, co-transfected COS cells [1]	increase in nitrite production, co-transfected COS cells [3]
152%		Myc-tagged active Akt (T308D/S473D) (from UniProt P31749 1-480) (enzyme)	64%	
	> 3 fold	phospho-Ser473-Akt, endogenous, human umbilical vein endothelial cells (HUVECs) (from UniProt P31749 1-480) (enzyme)		
		recombinant hsp90 (expressed from hsp90 cDNA, gift of Dr W. C. Sessa)	49%	40%
